Test results from the supplement of paper PMC10724198.
± gives the standard deviation of the averaged measurements.

Assays:
Saccharomyces cerevisiae [1] = assay: protein stability index of tFT-peptide fusion in wild type (PSI (0-1 scale)); higher = more stable (slower turnover); settings: genetic background: wild type
Method: (§1)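 MPS profiling in S. cerevisiae of two library types built from selected 12-aa C-degron peptides (IN1, IN2, LN1, LN3, VN2, R1-R5, W1-W3, Atg1 and Rpa12 C-termini): saturation mutagenesis libraries and C-terminal +1 capping libraries (13 aa). Each peptide is fused to the C-terminus of a sfGFP-mCherry timer, after a GGGS linker. Cells are FACS-sorted into 8 mCherry/sfGFP bins and sequenced. PSI runs from 0 (unstable) to 1 (stable), measured once in wild type and in the das1Δ or doa10Δ background.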

Saccharomyces cerevisiae [2] = assay: protein stability index of tFT-peptide fusion in deletion strain of DAS1 (PSI (0-1 scale)); higher = more stable (slower turnover)
Method: as §1

Saccharomyces cerevisiae [3] = assay: protein stability index of tFT-peptide fusion (C-terminal peptide) (PSI (0-1 scale)); higher = more stable (slower turnover); settings: temperature: 30 C
Method: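 MPS profiling in S. cerevisiae of the yeast C-terminome library: the last 12 aa of each annotated ORF are fused to the C-terminus of a sfGFP-mCherry timer, after a GGGS linker. Cells are FACS-sorted into 8 mCherry/sfGFP bins and deep-sequenced. PSI runs from 0 (unstable) to 1 (stable); wild type and das1Δ backgrounds, two technical replicates each.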

[4] = genetic background: das1 deletion
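Wherever protein stability index of tFT-peptide fusion in deletion strain of DAS1 is given: PSI is a weighted mean of each variant's read distribution over the sorted stability bins, computed only for variants having over 10 reads in total.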
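Wherever protein stability index of tFT-peptide fusion in wild type is given: PSI derived as read-weighted mean over the 8 sorting bins, only variants exceeding 10 total reads kept, mCherry placed adjacent to the peptide and sfGFP distal.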

Row | Sequence | protein stability index (Saccharomyces cerevisiae [1]) | protein stability index (Saccharomyces cerevisiae [2]) | protein stability index (Saccharomyces cerevisiae [3]; [4]) | protein stability index (Saccharomyces cerevisiae [3]; genetic background: wild type)
1 | PDKRNHLIKLLNF | 0.176 | 0.67 | – | –
2 | LVTYLSCVACIN | 0.0357 | 0.167 | – | –
3 | VRRAVGGWRLVG | 0.145 | 0.695 | – | –
4 | LKILRQKANHQN | 0.373 | 0.688 | – | –
5 | LVVYLFCVACIN | 0.0137 | 0.0277 | – | –
6 | KKHKKGQKQQIN | 0.404 | 0.554 | – | –
7 | RLINPLPVQFLN | 0.0773 | 0.668 | – | –
8 | ARWRVGLWRVAS | 0.0841 | 0.67 | – | –
9 | LVVYLSCYACIN | 0.0136 | 0.0478 | – | –
10 | KKHDKGQKQKIN | 0.0762 | 0.587 | – | –
11 | CTSCGYKFRTNV | 0.53 | 0.681 | – | –
12 | CTSCGHKFRTNN | 0.256 | 0.706 | – | –
13 | KKAKKGQKQKIN | 0.106 | 0.624 | – | –
14 | PKKRNHLIKLLN | 0.149 | 0.596 | – | –
15 | KKHKKGQKQKGN | 0.61 | 0.616 | – | –
16 | LVVYLSCVRCIN | 0.109 | 0.335 | – | –
17 | ARWRVGDWRGAS | 0.665 | 0.714 | – | –
18 | LKIARQKMNHQN | 0.277 | 0.694 | – | –
19 | PSLAASFWRDVG | 0.645 | 0.695 | – | –
20 | KKHKKGQKDKIN | 0.652 | 0.63 | – | –
21 | ARWRVGLWLGAS | 0.467 | 0.618 | – | –
22 | LVVYLSCVACIK | 0.0121 | 0.0213 | – | –
23 | CTSCGYKFRTNI | 0.601 | 0.701 | – | –
24 | FKMRWTFRYWVN | 0.119 | 0.735 | – | –

Row | Sequence | protein stability index (Saccharomyces cerevisiae [1]) | protein stability index (Saccharomyces cerevisiae [2]) | protein stability index (Saccharomyces cerevisiae [3]; [4]) | protein stability index (Saccharomyces cerevisiae [3]; genetic background: wild type)
25 | MTSCGYKFRTNN | 0.212 | 0.688 | – | –
26 | LVVYLVCVACIN | 0.0125 | 0.0307 | – | –
27 | RLIQPLPVQFLNH | 0.646 | 0.661 | – | –
28 | PDKRNHEIKLLN | 0.447 | 0.596 | – | –
29 | LQVYLSCVACIN | 0.0249 | 0.0994 | – | –
30 | PSLAASFWAVVG | 0.601 | 0.686 | – | –
31 | KKHVKGQKQKIN | 0.0752 | 0.606 | – | –
32 | RLIQPLPVQFLY | 0.28 | 0.682 | – | –
33 | KKHKKIQKQKIN | 0.0571 | 0.631 | – | –
34 | PDKRNHLIKLLW | 0.578 | 0.586 | – | –
35 | LKILRQKMNPQN | 0.689 | 0.677 | – | –
36 | ARWRVGVWRGAS | 0.304 | 0.686 | – | –
37 | VRGAVGGWRLVGG | 0.66 | 0.682 | – | –
38 | PHKRNHLIKLLN | 0.141 | 0.694 | – | –
39 | FSMRWTFGYWVN | 0.0637 | 0.404 | – | –
40 | PILAASFWRVVG | 0.145 | 0.678 | – | –
41 | FSQRWTFRYWVN | 0.0417 | 0.563 | – | –
42 | PSLAASFWRVVY | 0.636 | 0.682 | – | –
43 | LVVYLSCVACIL | 0.0189 | 0.032 | – | –
44 | ARWRVGLWRGAG | 0.254 | 0.64 | – | –
45 | LVVYLSCWACIN | 0.02 | 0.0504 | – | –
46 | PDKRNHLIKLLP | 0.595 | 0.596 | – | –
47 | PDKRNHLIKLLNI | 0.216 | 0.662 | – | –
48 | VRGAVGVWRLVG | 0.16 | 0.665 | – | –

Row | Sequence | protein stability index (Saccharomyces cerevisiae [1]) | protein stability index (Saccharomyces cerevisiae [2]) | protein stability index (Saccharomyces cerevisiae [3]; [4]) | protein stability index (Saccharomyces cerevisiae [3]; genetic background: wild type)
49 | AQWRVGLWRGAS | 0.499 | 0.709 | – | –
50 | PDKRNHLIKLTN | 0.292 | 0.568 | – | –
51 | VRGAVGGWRPVG | 0.667 | 0.671 | – | –
52 | PSLAAEFWRVVG | 0.168 | 0.697 | – | –
53 | CTMCGYKFRTNN | 0.236 | 0.69 | – | –
54 | CTSCGYKFRSNN | 0.508 | 0.715 | – | –
55 | RLIQPLPVQQLN | 0.125 | 0.596 | – | –
56 | ARAAAEYDCTVA [ATR1 C-terminal 12 aa] | – | – | 0.702 ± 0.013 | 0.7 ± 0.036
57 | VFSKKEPFPHSK [YJR084W C-terminal 12 aa] | – | – | 0.721 ± 0.019 | 0.771 ± 0.059
58 | NSIVKQFKEIFK [AIM41 C-terminal 12 aa] | – | – | 0.709 ± 0.028 | 0.67 ± 0.0096
59 | ELEELLEPILAN [GRX1 C-terminal 12 aa] | – | – | 0.406 ± 0.028 | 0.4708 ± 0.00077
60 | QVGKSQAQAVTL [ANY1 C-terminal 12 aa] | – | – | 0.674 ± 0.0092 | 0.7167 ± 0.0057
61 | PLGEVDLNSFKN [YHP1 C-terminal 12 aa] | – | – | 0.691 ± 0.019 | 0.682 ± 0.034
62 | SSWISKHSSVTD [YDL109C C-terminal 12 aa] | – | – | 0.696 ± 0.0068 | 0.6859 ± 0.002
63 | LRKAAANNCIQF [SUA5 C-terminal 12 aa] | – | – | 0.7215 ± 0.0026 | 0.7134 ± 0.0016
64 | SLVKTHNSSLCK [IAI11 C-terminal 12 aa] | – | – | 0.663 ± 0.026 | 0.689 ± 0.095
65 | STKTVPLNFLFL [YDL050C C-terminal 12 aa] | – | – | 0.724 ± 0.01 | 0.677 ± 0.032
66 | VMEEEEQDCKCI [POP8 C-terminal 12 aa] | – | – | 0.6923 ± 0.00099 | 0.6519 ± 0.0055
67 | VKHAEYAINAFF [YPR147C C-terminal 12 aa] | – | – | 0.709 ± 0.018 | 0.682 ± 0.026
68 | TPHNHNQNQHTN [RSF1 C-terminal 12 aa] | – | – | 0.72 ± 0.029 | 0.706 ± 0.03
69 | KNIKRDLRNVRI [TAX4 C-terminal 12 aa] | – | – | 0.7 ± 0.045 | 0.6514 ± 0.0059
70 | GQSLTNTGGGCC [YPT1 C-terminal 12 aa] | – | – | 0.707 ± 0.011 | 0.6389 ± 0.00065
71 | IRLKRRDFMKNL [RRT12 C-terminal 12 aa] | – | – | 0.689 ± 0.0069 | 0.382 ± 0.0049
72 | MQRVSTQHEKSS [PMA2 C-terminal 12 aa] | – | – | 0.693 ± 0.024 | 0.711 ± 0.096

Row | Sequence | protein stability index (Saccharomyces cerevisiae [1]) | protein stability index (Saccharomyces cerevisiae [2]) | protein stability index (Saccharomyces cerevisiae [3]; [4]) | protein stability index (Saccharomyces cerevisiae [3]; genetic background: wild type)
73 | YSILWSDVYPDS [PDR1 C-terminal 12 aa] | – | – | 0.7408 ± 0.0068 | 0.754 ± 0.013
74 | AYQITKRGIETA [RAD57 C-terminal 12 aa] | – | – | 0.675 ± 0.061 | 0.6951 ± 0.004
75 | KYEPTQEIIEDI [ITR1 C-terminal 12 aa] | – | – | 0.693 ± 0.036 | 0.702 ± 0.048
76 | KMDKRAKNSDSA [RPL8A C-terminal 12 aa] | – | – | 0.691 ± 0.0034 | 0.6886 ± 0.0018
77 | HTRQGNITQTKY [YKL100W-A C-terminal 12 aa] | – | – | 0.698 ± 0.017 | 0.692 ± 0.043
78 | FFFATQRDLKRT [YDR431W C-terminal 12 aa] | – | – | 0.715 ± 0.05 | 0.733 ± 0.019
79 | IKGKFYVKILGN [YGR115C C-terminal 12 aa] | – | – | 0.635 ± 0.036 | 0.648 ± 0.012
80 | NYPELPRLTFST [RFU1 C-terminal 12 aa] | – | – | 0.704 ± 0.018 | 0.691 ± 0.0092
81 | TPSSVQSSPKRA [ZRG8 C-terminal 12 aa] | – | – | 0.696 ± 0.017 | 0.668 ± 0.0075
82 | DLKKLIWNEIFS [FUS3 C-terminal 12 aa] | – | – | 0.707 ± 0.021 | 0.684 ± 0.027
83 | DEFWTDLFMNDI [WAR1 C-terminal 12 aa] | – | – | 0.77 ± 0.0079 | 0.757 ± 0.036
84 | SKKDYSIDSVEM [TPO2 C-terminal 12 aa] | – | – | 0.698 ± 0.0055 | 0.677 ± 0.014
85 | EVDDDGEIDGLF [ADE3 C-terminal 12 aa] | – | – | 0.7153 ± 0.0044 | 0.692 ± 0.021
86 | PRSDDEDDEDSE [FAP7 C-terminal 12 aa] | – | – | 0.683 ± 0.026 | 0.671 ± 0.025
87 | VKHQPKTYRTKK [SGO1 C-terminal 12 aa] | – | – | 0.676 ± 0.015 | 0.677 ± 0.053
88 | SHAALGNETNSL [YHR052C-B C-terminal 12 aa] | – | – | 0.6826 ± 0.0062 | 0.684 ± 0.034
89 | FFPFITIIFFHS [YCR024C-B C-terminal 12 aa] | – | – | 0.324 ± 0.026 | 0.299 ± 0.01
90 | IVCGDGSIHWFQ [FAU1 C-terminal 12 aa] | – | – | 0.735 ± 0.0094 | 0.769 ± 0.041
91 | AKWSISHKSNTG [YIL066W-A C-terminal 12 aa] | – | – | 0.694 ± 0.0059 | 0.69 ± 0.037
92 | RTGSQSPPSSSQ [MED7 C-terminal 12 aa] | – | – | 0.707 ± 0.022 | 0.673 ± 0.025
93 | KTGKSSVIDLQR [GCN2 C-terminal 12 aa] | – | – | 0.712 ± 0.031 | 0.726 ± 0.11
94 | FVRKIYSSIKVD [EMP70 C-terminal 12 aa] | – | – | 0.665 ± 0.025 | 0.614 ± 0.04
